Results: US10766960 (dated 2020)
Where two headings read alike, the source gives them in different places.

Columns and labels:
Test in all cases: SPR
FcgRIIIa V [1] = target: T1, FcgRIIIa V (human, UniProt P08637)
FcgRIa = target: T2, FcgRIa (human, UniProt P12314)
T2 chain: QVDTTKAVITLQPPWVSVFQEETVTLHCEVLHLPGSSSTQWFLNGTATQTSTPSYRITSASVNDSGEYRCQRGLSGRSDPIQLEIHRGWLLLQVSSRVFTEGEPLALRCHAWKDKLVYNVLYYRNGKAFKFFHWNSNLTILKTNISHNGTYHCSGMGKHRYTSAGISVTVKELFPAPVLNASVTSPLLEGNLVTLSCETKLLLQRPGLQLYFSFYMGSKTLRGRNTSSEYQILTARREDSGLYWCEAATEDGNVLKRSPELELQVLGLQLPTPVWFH

FcgRIIa R = target: T3, FcgRIIa R (human, UniProt P12318)
T3 chain: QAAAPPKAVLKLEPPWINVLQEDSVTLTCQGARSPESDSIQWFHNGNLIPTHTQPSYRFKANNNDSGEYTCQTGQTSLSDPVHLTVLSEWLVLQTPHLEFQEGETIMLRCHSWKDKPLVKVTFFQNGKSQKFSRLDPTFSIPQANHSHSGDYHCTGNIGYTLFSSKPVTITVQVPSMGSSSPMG

FcgRIIIa V [2] = target: T1, FcgRIIIa V; remark: listed apart in the source
FcgRIIa H = target: T4, FcgRIIa H (human, UniProt P12318)
T4 chain: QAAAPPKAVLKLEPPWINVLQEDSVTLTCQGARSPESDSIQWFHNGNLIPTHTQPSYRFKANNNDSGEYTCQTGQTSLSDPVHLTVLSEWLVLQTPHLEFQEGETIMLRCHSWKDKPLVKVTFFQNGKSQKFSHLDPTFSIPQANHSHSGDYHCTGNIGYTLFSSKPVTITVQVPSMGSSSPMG

FcgRIIb = target: T5, FcgRIIb (human, UniProt P31994)
T5 chain: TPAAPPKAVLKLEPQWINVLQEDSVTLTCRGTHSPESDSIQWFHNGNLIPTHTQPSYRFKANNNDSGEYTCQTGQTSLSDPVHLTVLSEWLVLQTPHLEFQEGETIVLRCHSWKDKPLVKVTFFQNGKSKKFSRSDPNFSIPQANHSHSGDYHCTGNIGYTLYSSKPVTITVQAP

T1 sequence (P08637 17-208 F176V): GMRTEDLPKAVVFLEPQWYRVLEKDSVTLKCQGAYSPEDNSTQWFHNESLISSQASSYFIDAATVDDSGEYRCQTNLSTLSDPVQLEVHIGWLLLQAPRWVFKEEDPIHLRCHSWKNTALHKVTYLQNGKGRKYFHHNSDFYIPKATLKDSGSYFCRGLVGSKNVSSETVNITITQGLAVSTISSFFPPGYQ

B1: IL6R-BP253/IL6R-L (antibody)
chain 1: QVQLQESGPGLVKPSETLSLTCAVSGHSISHDHAWSWVRQPPGEGLEWIGFISYSGITNYNPSLQGRVTISRDNSKNTLYLQMNSLRAEDTAVYYCARSLARTTAMDYWGEGTLVTVSSASTKGPSVFPLAPSSKSTSGGTAALGCLVKDYFPEPVTVSWNSGALTSGVHTFPAVLQSSGLYSLSSVVTVPSSSLGTQTYICNVNHKPSNTKVDKKVEPKSCDKTHTCPPCPAPELLGGPSVFLFPPKPKDTLMISRTPEVTCVVVDVEHEDPEVKFNWYVDGVEVHNAKTKPREEQYNSTYRVVSVLTVLHQDWLNGKEYKCKVSNKAFPAPIEKTISKAKGQPREPQVYTLPPSRDELTKNQVSLTCLVKGFYPSDIAVEWESNGQPENNYKTTPPVLDSDGSFFLYSKLTVDKSRWQQGNVFSCSVMHEALHNHYTQESLSLSP
chain 2: not shown
What does the source list for B1?
Kd (FcgRIIIa V [1]): 7100 nM; Kd (FcgRIa): 0.05 nM; Kd (FcgRIIa R): 2.3 nM; Kd (FcgRIIIa V [2]): 400 nM; Kd (FcgRIIa H): 860 nM; Kd (FcgRIIb): 8.9 nM
